Sequences and labels used below:
B1: Bak [human] / Bak [human] (parent)
chain 1: MASGQGPGPPRQECGEPALPSASEEQVAQDTEEVFRSYVFYRHQQEQEAEGVAAPADPEMVTLPLQPSSTMGQVGRQLAIIGDDINRRYDSEFQTMLQHLQPTAENAYEYFTKIATSLFESGINWGRVVALLGFGYRLALHVYQHGLTGFLGQVTRFVVDFMLHHCIARWIAQRGGWVAALNLGNGPILNVLVVLGVVLLGQFVVRRFFKS
chain 2: B1 chain 1

Variants of B1 are the subject of one test. The test is described as follows: BiFC (flow cytometry). To be noted: with Bak [human]; 6 independent experiments (H164A), 8 (WT); read off a plot.
Take chain 1 MASGQGPGPPRQECGEPALPSASEEQVAQDTEEVFRSYVFYRHQQEQEAEGVAAPADPEMVTLPLQPSSTMGQVGRQLAIIGDDINRRYDSEFQTMLQHLQPTAENAYEYFTKIATSLFESGINWGRVVALLGFGYRLALHVYQHGLTGFLGQVTRFVVDFMLAHCIARWIAQRGGWVAALNLGNGPILNVLVVLGVVLLGQFVVRRFFKS [chain 1 H164A]: the response (Mean Venus/Mean mRFP) was determined as 1.8.

Staying with this test, now noted: with Bak [human]; 6 independent experiments; read off a plot.
chain 1 MASGQGPGPPRQECGEPALPSASEEQVAQDTEEVFRSYVFYRHQQEQEAEGVAAPADPEMVTLPLQPSSTMGQVGRQLAIIGDDINRRYDSEFQTMLQHLQPTAENAYEYFTKIATSLFESGINWGRVVALLGFGYRLALHVYQHGLTGFLGQVTRFVVDFMLAHCIARWIAQRGGWVAALNLGNGPILNVLVVLGVVLLGQFVVRRFFKS [chain 1 H164A]: the response (Mean Venus/Mean mRFP) was found to be 1.8.

(Values after PMC10000386.)
